The supplement of paper PMC9170038

Tested on: MS2 coat protein
Assay: apparent KD of MS2 coat protein; designed switch direction (-1 OFF switch, 1 ON switch): 1; higher = weaker reporter binding
Outline: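 An oligonucleotide input, 200 uM small-molecule ligand, or no input was present during titration of SNAP-549-labelled MS2 coat protein, which was doubled from 0.7 or 1.5 nM to 3 µM. Designed RNA switches had been transcribed on Illumina chips by stalled E. coli RNA polymerase. Apparent KD per design is the median over clusters of curves fitted to normalised cluster fluorescence.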

[1] = Eterna round: R95, input ligand: FMN 200 uM
[2] = Eterna round: R95, input ligand: microRNA oligo, concentration not stated
[3] = Eterna round: R95, input ligand: none
[4] = input ligand: microRNA oligo, concentration not stated

Sequence | apparent KD of MS2 coat protein [1] | apparent KD of MS2 coat protein [2] | apparent KD of MS2 coat protein [3] | apparent KD of MS2 coat protein (input ligand: FMN 200 uM) | apparent KD of MS2 coat protein [4] | apparent KD of MS2 coat protein (input ligand: none)
CGUCCGGCCUGUGCUGGCCGGUAGCUUGUACAUGAGGAUCACCCAUGUUCAUGUGCAGGCUUUUUGCUCGUCUUGUG [salish99_mir208a_014] (puzzle: Sensor for hsa-mir-208a) | 27.9 nM | 29.6 nM | 31.5 nM |  |  | 
UUUAGUUGCGGGCAGGAUAUGUAUUAAAAUACAUGAGGAUCACCCAUGUGCGGGUAUAACACCCGGCAGAAGGGCCAAUCGCGAC [Laonerce - 3] (puzzle: Same State 2) | 34.2 nM | 191 nM | 296 nM |  |  | 
GCUCGCACGAUGACCCACAUGAGGAUCACCCAUGUGCAUGGGCAGGAUAUCUAGAUUAAGGAUGUAGAGAAGGGUUGAGCGAGC [SameState NG3 #26] (Eterna round: R96, puzzle: Same State NG 3) |  |  |  | 1580 nM | 192 nM | 533 nM
CAGCACUAUCGAGAGGAUAUGCGGUGAUGGACAUGAGGAUCACCCAUGUUAGCGGUAGCAUCACGGCAGAAGGCUCUGCUGCUGC [Soteed Omei mod 39] (Eterna round: R96, puzzle: Same State 2) |  |  |  | 19 nM | 21.5 nM | 28.5 nM
AAAAGACAUGAGGAUCACCCAUGUGAAAACAUACAAGGAUAUGUGUGGAAACCGUACUAUACAGAAGGUGUAUGUC [SS1 - 85] (Eterna round: R96, puzzle: Same State 1) |  |  |  |  | 25.1 nM | 
GCGGAGAGGUCAGGAUAUCCAUGGAAGACACAUGAGGAUCACCCAUGUGGGAGGGAAACCAGGAGGGAGAAGGGACCGGGACGC [ssng2 v2 c] (Eterna round: R96, puzzle: Same State NG 2) |  |  |  | 11.4 nM | 10.3 nM | 13.3 nM
UAUUAAGCUGUAGGAUAUCUAGGAUAUGGACGAGGAUCACCCGAGCAGCAUCAGCGCACCAGAGGAGAGAAGGACGCUUUGGUG [pwkr ssNG2 2F5 2FMN.23] (Eterna round: R96, puzzle: Same State NG 2) |  |  |  | 961 nM | 348 nM | 2730 nM
AGCCUGAGUCGAGGAUAUUAUGGAUCAAUUAAUACAUGAGGAUCACCCAUGUAAUUAAUUUAACAUGAGAAGGUGACUCAGGCA [SSNG2/10-B1] (Eterna round: R96, puzzle: Same State NG 2) |  |  |  |  | 8.66 nM | 
UUUGGGUGGCUGGAGGAUAUUCUAGUGGUUACAUGAGGAUCACCCAUGUGUCGCGCGGUACGCGAGGAGAAGGCUGGCGGCCGUU (puzzle: Same State 2) |  | 83.5 nM |  |  |  | 
GCCAACUUAUGAGGAUAUGGCACCUUAUUGGUGCCAGAAGGCAUGUGAAUUCACAUGAGGAUCACCCAUGUAUUAUAGUUGGCA [Fiskers NG1ss - 20] (Eterna round: R96, puzzle: Same State NG 1) |  |  |  | 32.2 nM | 221 nM | 356 nM
GCUAGAAAUAAUGCCAACAUGAGGAUCACCCAUGUAUGUUGGCAGGAUAUCGUAUGCAAAGCAUACGAGAAGGGCUAAACUAGC [Mat - Same State NG 3 - JL Mod - D9] (Eterna round: R96, puzzle: Same State NG 3) |  |  |  | 217 nM | 190 nM | 231 nM
UGUUGUAUUACAGGAUAUCUAUUAUUUUUACUUAGAGAAGGGUAUUCACAUGAGGAUCACCCAUGUAUAUACGAGGAAGUUGUG [JMF's solution 27] (Eterna round: R96, puzzle: Same State NG 1) |  |  |  |  | 38.2 nM | 
GUGGUCAGACAUGAGGAUCACCCAUGUGGAAUAAAUAAGGAGAAGGAUAUAGAAUAUAGGAUAUACUAGAAGGUCUGGUUGGUG (Eterna round: R96, puzzle: Same State NG 3) |  |  |  |  | 63.7 nM | 
UUAAAACAUGAGGAUCACCCAUGUCAACAAAGUCGAGGAUAUGGGCAAAUAAAAUAAGAACCAGAAGGCGAAUAAA [salish99_SS1_r3_002] (puzzle: Same State 1) | 39.5 nM | 245 nM | 412 nM |  |  | 
CCGAUGGUAUACUAGGAUAUGGGCGCCCUUACAUGAGGAUCACCCAUGUUUACACAAAUCCGCGGCCAGAAGGAGUUCAUGGGAG [Orgere] (Eterna round: R96, puzzle: Same State 2) |  |  |  | 134 nM | 85.6 nM | 112 nM
UUAAUGAUGUAAGGAUAUACAUGAGGAUUUCUCGUAGAAGGUACAGGACAUGAGGAUCACCCAUGUGUCGCUCCGUAGAGCGUA [JL SSNG1 1.08] (Eterna round: R96, puzzle: Same State NG 1) |  |  |  | 349 nM | 414 nM | 525 nM
CGUGGGUGGCUGGAGGAUAUUCGAGUGGUAACAUGAGGAUCACCCAUGUGUCGCGCGGUACAUGAGGAGAAGGCUGGCGGCCGGC (puzzle: Same State 2) | 225 nM | 40.1 nM | 76.2 nM |  |  | 
AAUUAAGAUCUAGGAUAUCACGUCGUUUAGACGUGAGAAGGAGAUCAUAACAUGAGGAUCACCCAUGUAUUACAUGAAUUAAUU [SSNG1/6-B3] (Eterna round: R96, puzzle: Same State NG 1) |  |  |  | 24.2 nM | 22.9 nM | 28.5 nM
CUGAGAUGUCAAGGAUAUCACGUCGAUUAGACGUGAGAAGGUGAUCUGCACAUGAGGAUCACCCAUGUGUUACAUGGAACUCAG [Brourd's SSNG1/1-A2 mod 11] (Eterna round: R96, puzzle: Same State NG 1) |  |  |  | 197 nM | 386 nM | 431 nM
AGACACAUGAGGAUCACCCAUGUCAUGAGCUUAGCUCGGGCACAGGAUAUCCGGUCCUAGAGACCGGAGAAGGGUGGCCGAAAA [Zara MOD] (Eterna round: R96, puzzle: Same State NG 3) |  |  |  | 396 nM | 323 nM | 670 nM
UACCUACCAGGAGGAUAUACAAACCCGAAAGGAGUAGAAGGCCUGAGUACUAACAUGAGGAUCACCCAUGUAGCGCCAGUUCGC [Eternabot solution 10] (Eterna round: R96, puzzle: Same State NG 1) |  |  |  | 18.2 nM | 15.1 nM | 17.4 nM
CGCGGUAAGGAAGGAUAUGGGACGAAAACGUACCUAGAAGGUCCACAUGAGGAUCACCCAUGUACCAAGAAAGCCGCGAAAUUA [Cereraus] (Eterna round: R96, puzzle: Same State NG 1) |  |  |  | 90.7 nM | 276 nM | 410 nM
AUAAAACAUGAGGAUCACCCAUGUGGCGCUGACACAGGAUAUCAUGCGGAACUGGACGUAUGAGAAGGGUGAUGCG [Diateedza] (puzzle: Same State 1) | 53 nM | 216 nM | 419 nM |  |  | 
GUUACAUGAGGAUCACCCAUGUAUGUGUGGGAGUAAGUGUCUUAGGAUAUCUAGUAUUUAAUCUAAGAGAAGGAAGAUUGUUGU [JMF's solution 65] (Eterna round: R96, puzzle: Same State NG 3) |  |  |  | 105 nM | 74.1 nM | 128 nM
